{"source": "paper PMC6867900", "about": "“The Cyclic AMP Receptor Protein Regulates Quorum Sensing and Global Gene Expression in Yersinia pestis during Planktonic Growth and Growth in Biofilms” (mBio, 2019)", "proteins": {"B1": {"name": "Yersinia pestis cyclic AMP (cAMP) receptor protein (Crp) (natural protein)", "chain": "MVLGKPQTDPTLEWFLSHCHIHKYPSKSTLIHQGEKAETLYYIVKGSVAVLIKDEEGKEMILSYLNQGDFIGELGLFEEGQERSAWVRAKTACEVAEISYKKFRQLIQVNPDILMRLSSQMANRLQITSEKVGNLAFLDVTGRIAQTLLNLAKQPDAMTHPDGMQIKITRQEIGQIVGCSRETVGRILKMLEDQNLISAHGKTIVVYGTR", "notes": "also called Y. pestis Crp"}}, "molecular_target": "the molecule itself", "test": "crystal structure", "data": [{"protein": "B1", "values": [{"measurement": "stoichiometry N", "result": 2}]}]}
